Here are results for one protein from article PMC8498466.

Substrate in the data set: NCCSC[C@H](N)C(=O)O
The data set is described as follows: cells, lysate or membranes. To be noted: inside-out membrane vesicles energized with 0.25 mM ATP; 50 mM KCl, 10 mM MgSO4, valinomycin 0.25 uM; Thl 0.5-5 mM; Thl/H+ antiport (export direction).

B1: LysO (LysON-HA) (Escherichia coli K-12) (protein)
chain: MFSGLLIILVPLIVGYLIPLRQQAALKVINQLLSWMVYLILFFMGISLAFLDNLASNLLAILHYSAVSITVILLCNIAALMWLERGLPWRNHHQQEKLPSRIAMALESLKLCGVVVIGFAIGLSGLAFLQHATEASEYTLILLLFLVGIQLRNNGMTLKQIVLNRRGMIVAVVVVVSSLIGGLINAFILDLPINTALAMASGFGWYSLSGILLTESFGPVIGSAAFFNDLARELIAIMLIPGLIRRSRSTALGLCGATSMDFTLPVLQRTGGLDMVPAAIVHGFILSLLVPILIAFFSA
In the case of B1, the Km (as a rule, the substrate concentration at which the rate is half of its maximum) was 1500 µM.
